Substitutions are numbered along the chain they refer to.
T1: Rhesus D antigen (human, UniProt Q02161 2-417)
T1 construct: whole, on cells; Presented on RhD-positive erythrocytes in all assays; also called RhD; RhD antigen
T1 sequence (looked up): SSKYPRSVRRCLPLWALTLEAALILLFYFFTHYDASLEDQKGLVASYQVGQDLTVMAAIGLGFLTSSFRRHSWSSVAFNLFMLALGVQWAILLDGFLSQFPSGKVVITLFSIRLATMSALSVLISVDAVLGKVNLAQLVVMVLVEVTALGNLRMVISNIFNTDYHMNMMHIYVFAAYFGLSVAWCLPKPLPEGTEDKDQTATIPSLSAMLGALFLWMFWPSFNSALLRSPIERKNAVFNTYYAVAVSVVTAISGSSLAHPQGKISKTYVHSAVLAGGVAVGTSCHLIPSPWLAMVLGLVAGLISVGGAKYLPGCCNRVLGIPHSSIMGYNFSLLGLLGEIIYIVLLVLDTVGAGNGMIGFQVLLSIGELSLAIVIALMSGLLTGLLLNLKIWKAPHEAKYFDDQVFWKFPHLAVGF

B1: RhD204.128A03 (Fab, V domains shown)
VH: EVQLVESGGGVVQPGRSLRLSCAASGFSFSNYGMHWVRQAPGKGLEWVAVISYDGSEKYYADSVKGRFTISRDNSKKALYLQMNSLRAEDTAMYYCKNKVGATRRAVVAFDIWGQGTTVTVSS
VL: LSSELTQDPAVSVALGQTVRITCQGDSLRSYYANWYQQKPGQAPLSVIYGKNNRPSGIPDRFSGSNSGNTAFLTITGTQAEDEADYYCNSRDSSGNYRELFGGGTKLTVLG
notes: Tested as Fab (periplasmic extract); lambda clone
B2: RhD294.119E10 (Fab, V domains shown)
VH: B1 VH with E1Q, A78T, F110V, T118M
VL: EIVLTQSPGTLSLSPRERATLSCRANQYVNSNHLAWYQQKPGQAPRLLLYGASRRATGIPDRFSGSGTGTDFTLIISRLEPEDFAVYFCQLYDHSRPMYTFGQGTKLEIKR
notes: Tested as Fab (periplasmic extract)
B3: RhD239.126F09 (Fab, V domains shown)
VH: QVQLVESGGGVVQPGTSLRLSCAASGFTFRTYGMHWVRQAPGKGLEWVAYIWYDGSNKYYADSVKGRFTISRDNSKSTLNLQMNSLRAEDTAVYYCAREIASRGYSRYLYYFDSWGQGTLVTVSS
VL: DIQLTQSPSSLSASVGDRVTITCRASQSISSYLNWYQQKPGKAPKLLISAASSLQSGVPSRFSGSGSGTDFTLTISSLQREDYATYYCQQSYSTPPYTFGQGTKLEIKR
notes: as for B2
B4: RhD292.109A02 (Fab, V domains shown)
VH: QVQLVETGGGVVQPGRSLRLSCAASGFTFSSYGMHWVRQAPGKGLEWVAVIWSDGSNKYYADSVKGRFTISRDNSRNTLYLQMNSLRAEDTAVFYCAREQGGYSSSWYRRYYYYYMDVWGQGTTVTVSS
VL: B3 VL with L4M, Y32W, K45N, S49F, S53T, R80P, Y83F, T94S, P95S, P96V
notes: as for B2
B5: RhD240.125A09 (Fab, V domains shown)
VH: QLQLQESGPGLVKPSGTLSLTCAVSGGSMRSSNWWTWVRQPPGKGLEWIGEIHHGGSTNYNPSLQSRVTISVDKSKNRFSLKLSSVTAADTAVYHCARGRSYYDSSGHSFRGLVPFDIWGQGTMVTVSS
VL: DIQMTQSPSTLSASVGDRVTITCRASQSISSWLAWYQQKPGKAPKLLVYKTSSLEGGVPSRFSGSGSGTEFSLTIFRLQSDDFATYYCQQYNSFPYTFGQGTKLEFTR
notes: as for B2
B6: RhD241.119B05 (Fab, V domains shown)
VH: QVQLQESGPGLVKPSETLSLICTVSGGSISSNYWSWIRQPPGKGLEWIGYIYYSGNTNYNPSLKSRVTISLDTSKNQFSLKLRSVTAADTAVYYCAREWRQYGSGIRGSRYYYGMDVWGQGTLVTVSS
VL: EIVLTQSPVTLSLSPGERATLSCRASQSVSSGYLAWYQQKPGQAPRLLIYGTSIRATGIPDRFSGSGSGTDFTLTISRLEPEDFAVYYCQQYGSSPLYSFGQGTKVDIKR
notes: as for B2
B7: RhD243.109A05 (Fab, V domains shown)
VH: QVQLVESGGGVVQPGRSLRLSCAASGFTFSTYGMHWVRQAPGKGLEWVAVIWYDGSQKYYVDSVKGRFTISRDNSKNTLYLQMNSLRAEDTAVYYCAREVAVRGVIRYYYGMDVWGQGTTVTVSS
VL: DIQLTQSPSSLAASVGDRVIITCRSGQGIRNYLNWYQQKPGKAPKLLIYAASFLQSGVPSRFSGSGSGTDFTLTISSLQPEDFATYNCQQSYSDPWTFGQGTKVEIKR
notes: as for B2
B8: RhD293.109A09 (Fab, V domains shown)
VH: B7 VH with Q1E, S30N, Q57N, V61A, G111A
VL: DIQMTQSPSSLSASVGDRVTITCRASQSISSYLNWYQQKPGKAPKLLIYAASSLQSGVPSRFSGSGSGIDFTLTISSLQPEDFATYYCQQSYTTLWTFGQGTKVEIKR
notes: as for B2
B9: RhD205.160B12 (Fab, V domains shown)
VH: EVQLVETGGGLVKPGGSLRLSCAASGFTFRSYSMNWVRQAPGKGLEWVSSIGSSSTYTYSADSVKGRFTISRDNAKNSLYLQMNSLRAEDTAVYYCARGEPLNYDYIWGGYRFTIHWGQGTLVTVSS
VL: DIQLTQSPSFLSASVGDRVTITCRASHGISSYLAWYQQKPGKAPNLLIFPASTLQSGVPSRFSGSGSGTEFTLTISSLRPEDFATYYCQQLNSYSRWAFGQGTKVEVKR
notes: as for B2
B10: RhD206.160C06 (Fab, V domains shown)
VH: QVQLVESGGGVVQPGRSLRLSCAASGFTFSSYGMHWVRQAPGKGLEWVAIIWFDGSNKYYADSVKGRFTISRDNSKNTLYLQINSLRAEDTAVYYCAKEHGYYSSSWYRNYYYYAMDVWGQGTTVTVSS
VL: DIQMTQSPSSLSASVGDRVTITCRASQSIRRYLNWYQKKPGKAPKLLIYAASSLQSGVPSRFSGSGSGTDFTLTISSLQPEDFATYYCQQSYRTQGLTFGGGTKVEIKR
notes: as for B2
B11: RhD203.179F07 (Fab, V domains shown)
VH: EVQLVESGGGVVQPGRSLRLSCAASGFTFSNYGMHWVRQAPGKGLEWVAVIWYDGSNKYYADSVKGRFTISRDNSKNTLYLQMNSLRAEDTAVYYCAREMVSYSSSWYRRYYYYVMDVWGKGTTVTVSS
VL: QSALTQPASVSGSPGQSITISCTATSSDIGAYNYVSWYQHHPGKAPKVIITDVNKRPSGVPDRFSGSKSGNTASLTISGLQPEDEAEYSCCSYAGTYSYVFGTGTKVTVLS
notes: as for B2
B12: RhD242.181A03 (Fab, V domains shown)
VH: B11 VH with Y32H, V101A
VL: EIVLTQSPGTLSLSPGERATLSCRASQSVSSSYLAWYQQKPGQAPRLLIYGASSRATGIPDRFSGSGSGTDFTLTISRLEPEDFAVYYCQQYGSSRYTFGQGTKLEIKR
notes: as for B2
B13: RhD208.179B11 (Fab, V domains shown)
VH: B11 VH with S30R, N31T, Y32S, G33A, V115N
VL: QAVVTQEPSLTVSPGGTVTLTCASSTGSVTSGYYPNWFQQKPGQAPRPLISGTSNKLSWTPARFSGSLLGGKAALTVSGVQPEDEAVYYCLLYYGVPQPVVFGGGTKLTVLG
notes: as for B2
B14: RhD246.179B10 (Fab, V domains shown)
VH: B11 VH with S7T, N31S, V115N
VL: LSSELTQDPAVSVTLGQTVRITCQGDSLRHSYASWYQQKPGQAPILVIYGKNIRPSGIPDRFSGSTSGNTASLTITGAQAEDGGDYYCNSRDTSTDHYVFGDGTRVTVVG
notes: as for B2
B15: RhD245.164E06 (Fab, V domains shown)
VH: EVQLVQSGGGVVQPGRSPRLSCAASGFTFSSYGMHWVRQAPGKGLEWVAFIWYDGSNKYYADSVKGRFTISRDNSKNTLYLQMNSLRAEDTAVYYCARDLRNHVFWSGYSTSFDYWGQGTLVTVSS
VL: DIQMTQSPSSLSASVGDGITITCRASQSVRSYLNWYQQKPGKAPELLIYAASRLQSGVPSRFSGSGSGTDFTLTISSLQPEDFATYYCQHSYSTPVTFGQGTKVEVKR
notes: as for B2
B16: RhD158.119B06 (Fab, V domains shown)
VH: EVQLVETGGGVVQPGRSLRLSCAASGFSFSNFGFHWIRQSPGKGLEWVAVIWYDGSNRFYADSVKGRFTISRDSSKNMLFLQMDSLRAEDTAVYYCAREISMKVVIRRHYVMDVWGHGTTVTVSS
VL: DIQMTQSPSPLSASVGDRVSITCRASRGISNSLAWYQQKPGKVPKLLIYAASTLQSGVPSRFSGGGSGTDFTLTISSLQPEDVATYYCHTYNSAPFAFGPGTKVDIKR
notes: as for B2
B17: RhD244.158B10 (Fab, V domains shown)
VH: QVQLVESGGGVVQPGRSLRLSCAASGFSFSSYGMHWVRQAPGKGLEWVAIIWYDGSNKLYADSVKGRFTISRDNSRNTLYLQMSSVRAEDTAVYYCARDSVRGVSRWGTQKYYAMDVWGQGTTVTVSS
VL: DIQMTQSPSSLSASVGDRVIITCRASQSVNRYLNWYQQKPGKAPKLLIYAASSLQGGVPSRFSGSGSGTDFTLTISSLQREDFATYYCQQSYRTRTFGQGTKVEIKR
notes: as for B2
B18: RhD159.119B09 (Fab, V domains shown)
VH: EVQLVETGGGLVQPGGSLRLSCAASGFSFRSYDMNWVRQAPGKGLEWVSYISGRGSTTYYADSVKGRFTISRDNAKNSLYLQMNSLRAEDTAVYYCARDLYGDYDPKSYYYYAMDVWGHGTTVTVSS
VL: EIVMTQSPGTLSLSPGERATLSCRASHTVSSGYLAWYQQKPGQAPRLLIYGASNRATGVPDRFGGSGSGTDFTLTISRLEPEDSAVYFCQQYGTSPGVTFGQGTRLEIER
notes: as for B2

Target: T1, Rhesus D antigen
Assay: agglutination assay, Fab on RhD(+)/RhD(-) RBC mix
Experimental: After each round of panning single colonies were picked for analysis of their binding properties to red blood cells in agglutination assays. Briefly, single colonies were inoculated into 2×YT/100 μg/mL carbenicillin/1% glucose and shaken overnight at 37° C. The next day, DeepWell plates were inoculated using 900 μl 2×YT/100 μg/mL carbenicillin/0.1% glucose and 10 μl overnight culture. The plates were shaken for two hours at 37° C., before Fab induction was performed with addition of 300 μl 2×YT/100 μg/mL carbenicillin/0.25 mM IPTG per well. The plate was shaken overnight at 30° C. The following day, the bacteria were pelleted by centrifugation (3200×g, 4° C., 10 minutes), and re-suspended in 100 μl of 0.8 M NaCl, 0.2×PBS, 8 mM EDTA, and incubated for 15 minutes on ice in order to perform a periplasmic extraction of the Fab fragments. The plate was transferred to −20° C. and finally the suspension was thawed and centrifugation was performed for 10 minutes at 4° C. and 3200×g. The periplasmic extract was used in ELISA assays for analysis of Fab content and in agglutination assays to evaluate the binding potential of the individual Fab fragments. The agglutination assay was performed as follows: RhD(−) and RhD(+) RBC were mixed in a 1:1 ratio, and washed 3 times in PBS. After the final wash, the cell mix was re-suspended in 1% BSA in PBS at a density of 1% cells, 50 μl was added to each well of a 96-plate. Periplasmic extracts were added to the wells. As a positive control Rhesogamma P immunoglobulin (Aventis) was used according to the manufacturer's instructions. The plates were incubated for one hour at room temperature with gentle shaking. The cells were washed three times with PBS, before the secondary antibody was added (goat anti-human Fab/FITC conjugate, Sigma F5512) in a 1:100 dilution. The plates were left for agglutination for one hour at room temperature without shaking. Fab fragments positive in the agglutination assay was determined by visual inspection, and recorded by taking a picture. Quantization of the binding activity of the Fab fragments was performed by FACS analysis of the agglutination samples.

Binding result, binds:
B1
B2
B3
B4
B5
B6
B7
B8
B9
B10
B11
B12
B13
B14
B15
B16
B17
B18

Reference: patent US20110217317A1 (published 2011)
